Laboratory results as given in paper PMC5482882, “Aldosterone Modulates the Association between NCC and ENaC” (Scientific Reports, 2017).

T1: thiazide-sensitive sodium chloride cotransporter (NCC) (mouse (endogenous in mDCT15 cells and …, UniProt P59158 1-1002))
T1 construct: thiazide-sensitive sodium-chloride cotransporter (NCC), endogenous in mouse mDCT15 cells and mouse kidney cortex; Precipitated with an anti-NCC antibody coupled to resin (Pierce Co-Immunoprecipitation Kit); source: endogenous, mDCT15 whole cell lysate; endogenous, mouse kidney cortex homogenate
T1 sequence (looked up): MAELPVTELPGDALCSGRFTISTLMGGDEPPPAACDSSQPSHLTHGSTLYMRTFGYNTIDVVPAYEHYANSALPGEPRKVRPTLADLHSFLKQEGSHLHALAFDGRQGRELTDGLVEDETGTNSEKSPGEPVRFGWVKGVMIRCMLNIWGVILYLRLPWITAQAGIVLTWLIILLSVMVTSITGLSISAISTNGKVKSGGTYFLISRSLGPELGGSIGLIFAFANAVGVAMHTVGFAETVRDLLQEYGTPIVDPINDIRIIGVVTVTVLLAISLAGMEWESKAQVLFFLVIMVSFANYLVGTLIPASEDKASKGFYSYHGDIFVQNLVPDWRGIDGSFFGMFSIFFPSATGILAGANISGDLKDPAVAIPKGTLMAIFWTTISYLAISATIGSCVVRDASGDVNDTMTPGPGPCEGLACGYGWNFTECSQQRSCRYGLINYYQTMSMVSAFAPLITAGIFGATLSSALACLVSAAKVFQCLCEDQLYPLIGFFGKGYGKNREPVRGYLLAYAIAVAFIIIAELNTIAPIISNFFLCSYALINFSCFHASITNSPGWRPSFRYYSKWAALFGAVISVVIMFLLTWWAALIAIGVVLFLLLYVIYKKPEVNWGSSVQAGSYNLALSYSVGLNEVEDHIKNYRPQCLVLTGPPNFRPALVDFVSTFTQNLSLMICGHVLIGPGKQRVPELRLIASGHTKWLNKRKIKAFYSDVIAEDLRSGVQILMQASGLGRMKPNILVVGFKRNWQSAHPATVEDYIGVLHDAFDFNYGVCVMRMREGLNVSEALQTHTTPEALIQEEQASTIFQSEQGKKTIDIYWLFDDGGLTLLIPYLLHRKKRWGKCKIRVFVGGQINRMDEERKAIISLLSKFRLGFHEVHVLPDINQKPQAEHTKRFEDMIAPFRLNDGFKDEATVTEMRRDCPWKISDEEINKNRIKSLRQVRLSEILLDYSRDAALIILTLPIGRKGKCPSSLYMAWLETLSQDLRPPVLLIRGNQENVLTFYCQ

T2: NCC-pBIND (full-length NCC fused to the GAL4 DNA-binding domain) (UniProt P59158 1-1002)
T2 construct: source: COS-7, transiently transfected, mammalian two-hybrid fusion
T2 sequence (looked up): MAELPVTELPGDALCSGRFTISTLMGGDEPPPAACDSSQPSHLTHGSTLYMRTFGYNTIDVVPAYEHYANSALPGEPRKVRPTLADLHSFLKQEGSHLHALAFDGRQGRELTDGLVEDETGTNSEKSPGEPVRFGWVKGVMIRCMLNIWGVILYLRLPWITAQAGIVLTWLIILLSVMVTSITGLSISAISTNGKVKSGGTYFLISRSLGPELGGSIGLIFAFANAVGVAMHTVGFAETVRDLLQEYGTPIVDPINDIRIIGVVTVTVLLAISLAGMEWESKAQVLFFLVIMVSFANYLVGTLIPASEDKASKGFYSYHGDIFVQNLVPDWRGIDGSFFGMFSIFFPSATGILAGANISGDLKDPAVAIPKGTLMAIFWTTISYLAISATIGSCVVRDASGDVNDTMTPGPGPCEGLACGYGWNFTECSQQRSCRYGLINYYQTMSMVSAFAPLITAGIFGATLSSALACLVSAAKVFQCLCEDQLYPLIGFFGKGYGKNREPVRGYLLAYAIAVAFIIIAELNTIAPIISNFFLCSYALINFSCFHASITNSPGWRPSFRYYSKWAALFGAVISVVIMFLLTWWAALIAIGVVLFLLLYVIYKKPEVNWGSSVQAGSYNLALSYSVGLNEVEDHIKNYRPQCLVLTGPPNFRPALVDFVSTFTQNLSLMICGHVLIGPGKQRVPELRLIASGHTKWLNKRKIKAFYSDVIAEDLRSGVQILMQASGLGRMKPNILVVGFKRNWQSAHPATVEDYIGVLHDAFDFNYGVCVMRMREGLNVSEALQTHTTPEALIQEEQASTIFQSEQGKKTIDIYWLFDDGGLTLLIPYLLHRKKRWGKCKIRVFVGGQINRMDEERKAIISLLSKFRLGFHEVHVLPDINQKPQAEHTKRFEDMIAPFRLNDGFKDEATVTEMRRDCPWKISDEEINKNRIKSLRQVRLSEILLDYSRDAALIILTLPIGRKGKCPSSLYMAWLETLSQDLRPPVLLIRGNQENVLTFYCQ

B1: epithelial sodium channel alpha subunit (αENaC) (natural protein, UniProt Q61180 1-699, looked up)
chain: MLDHTRAPELNLDLDLDVSNSPKGSMKGNNFKEQDLCPPLPMQGLGKGDKREEQALGPEPSEPRQPTEEEEALIEFHRSYRELFQFFCNNTTIHGAIRLVCSKHNRMKTAFWAVLWLCTFGMMYWQFALLFEEYFSYPVSLNINLNSDKLVFPAVTVCTLNPYRYTEIKEDLEELDRITEQTLFDLYKYNSSYTRQAGGRRRSTRDLRGALPHPLQRLRTPPPPNPARSARSASSSVRDNNPQVDRKDWKIGFQLCNQNKSDCFYQTYSSGVDAVREWYRFHYINILSRLPDTSPALEEEALGSFIFTCRFNQAPCNQANYSQFHHPMYGNCYTFNNKNNSNLWMSSMPGVNNGLSLTLRTEQNDFIPLLSTVTGARVMVHGQDEPAFMDDGGFNVRPGVETSISMRKEALDSLGGNYGDCTENGSDVPVKNLYPSKYTQQVCIHSCFQENMIKKCGCAYIFYPKPKGVEFCDYLKQSSWGYCYYKLQAAFSLDSLGCFSKCRKPCSVTNYKLSAGYSRWPSVKSQDWIFEMLSLQNNYTINNKRNGVAKLNIFFKELNYKTNSESPSVTMVSLLSNLGSQWSLWFGSSVLSVVEMAELIFDLLVITLIMLLHRFRSRYWSPGRGARGAREVASTPASSFPSRFCPHPTSPPPSLPQQGTTPPLALTAPPPAYATLGPSASPLDSAVPGSSACAPAMAL
notes: epithelial sodium channel (ENaC) alpha subunit, endogenous in mouse mDCT15 cells and mouse kidney cortex; Detected by immunoblot with an αENaC antibody in the NCC precipitate; source: endogenous, mDCT15 whole cell lysate; endogenous, mouse kidney cortex homogenate
B2: α-pACT (full-length αENaC fused to the VP16 activation domain) (natural protein, UniProt Q61180 1-699, looked up)
chain: MLDHTRAPELNLDLDLDVSNSPKGSMKGNNFKEQDLCPPLPMQGLGKGDKREEQALGPEPSEPRQPTEEEEALIEFHRSYRELFQFFCNNTTIHGAIRLVCSKHNRMKTAFWAVLWLCTFGMMYWQFALLFEEYFSYPVSLNINLNSDKLVFPAVTVCTLNPYRYTEIKEDLEELDRITEQTLFDLYKYNSSYTRQAGGRRRSTRDLRGALPHPLQRLRTPPPPNPARSARSASSSVRDNNPQVDRKDWKIGFQLCNQNKSDCFYQTYSSGVDAVREWYRFHYINILSRLPDTSPALEEEALGSFIFTCRFNQAPCNQANYSQFHHPMYGNCYTFNNKNNSNLWMSSMPGVNNGLSLTLRTEQNDFIPLLSTVTGARVMVHGQDEPAFMDDGGFNVRPGVETSISMRKEALDSLGGNYGDCTENGSDVPVKNLYPSKYTQQVCIHSCFQENMIKKCGCAYIFYPKPKGVEFCDYLKQSSWGYCYYKLQAAFSLDSLGCFSKCRKPCSVTNYKLSAGYSRWPSVKSQDWIFEMLSLQNNYTINNKRNGVAKLNIFFKELNYKTNSESPSVTMVSLLSNLGSQWSLWFGSSVLSVVEMAELIFDLLVITLIMLLHRFRSRYWSPGRGARGAREVASTPASSFPSRFCPHPTSPPPSLPQQGTTPPLALTAPPPAYATLGPSASPLDSAVPGSSACAPAMAL
notes: epithelial sodium channel (ENaC) alpha subunit, full-length clone in pACT; source: COS-7, transiently transfected, mammalian two-hybrid fusion
B3: γ-pACT (full-length γENaC fused to the VP16 activation domain) (natural protein, UniProt Q9WU39 1-655, looked up)
chain: MAPGEKIKAKIKKNLPVRGPQAPTIKDLMHWYCLNTNTHGCRRIVVSRGRLRRLLWIAFTLTAVALIIWQCALLVFSFYTVSVSIKVHFQKLDFPAVTICNINPYKYSAVSDLLTDLDSETKQALLSLYGVKDVLDSTPRKRREAGSMRSTWEGTPPRFLNLIPLLVFNENEKGKARDFFTGRKRKISGKIIHKASNVMHVHESKKLVGFQLCSNDTSDCATYTFSSGINAIQEWYKLHYMNIMAQVPLEKKINMSYSAEELLVTCFFDGMSCDARNFTLFHHPMYGNCYTFNNRENATILSTSMGGSEYGLQVILYINEDEYNPFLVSSTGAKVLVHQQNEYPFIEDVGTEIETAMSTSIGMHLTESFKLSEPYSQCTEDGSDVPVTNIYNAAYSLQICLYSCFQTKMVEKCGCAQYSQPLPPAANYCNYQQHPNWMYCYYQLYQAFVREELGCQSVCKQSCSFKEWTLTTSLAQWPSEASEKWLLNVLTWDQSQQINKKLNKTDLAKLLIFYKDLNQRSIMESPANSIEMLLSNFGGQLGLWMSCSVVCVIEIIEVFFIDFFSIIARRQWQKAKDWWARRRTPPSTETPSSQQGQDNPALDTDDDLPTFTSAMRLPPAPEAPVPGTPPPRYNTLRLDSAFSSQLTDTQLTNEF
notes: epithelial sodium channel (ENaC) gamma subunit, full-length clone in pACT; source: COS-7, transiently transfected, mammalian two-hybrid fusion

Tests used:
Conditions in all cases: partners not purified
[1] = target: T1, thiazide-sensitive sodium chloride …; experiment: co-IP; mDCT15 whole cell lysates (about 800 ug protein per column), anti-NCC antibody coupled to resin (Pierce Co-Immunoprecipitation Kit), eluate blotted for αENaC; cells treated with vehicle (EtOH), Aldo (100 nM, 48 hrs), Aldo + SGK1 inhibitor (GSK690394, 6 uM, 60 min) or SGK1 inhibitor alone
[2] = target: T1, thiazide-sensitive sodium chloride …; experiment: co-IP; mouse kidney cortex homogenates (RIPA buffer), anti-NCC antibody coupled to resin (Pierce Co-Immunoprecipitation Kit), eluate blotted for αENaC; mice on high salt (4%) chow treated with vehicle (25% DMSO in saline) or Aldo (4 ug/day, 10 d)
[3] = target: T2, NCC-pBIND (full-length NCC fused to the …); experiment: two-hybrid; Checkmate mammalian two-hybrid in transiently transfected COS-7 cells; NCC-pBIND (GAL4 DNA-binding domain) with α- or γ-pACT (VP16) and pG5luc; firefly luciferase normalized to Renilla, fold change of negative control (empty pBIND + pACT); with or without co-transfected SGK1 or WNK4; read 48 hours after transfection

| Binder | fold change of αENaC co-precipitated with NCC, Aldo + SGK1 inhibitor against vehicle [1] [fold change/vehicle] | fold change of αENaC co-precipitated with NCC, Aldo against vehicle [1] [fold change/vehicle] | fold change of αENaC relative to NCC in the CoIP fractions, Aldo against vehicle [1] [fold change/vehicle] | fold change of αENaC co-precipitated with NCC, Aldo against vehicle [2] [fold change/vehicle] | two-hybrid luciferase signal, fold of negative control [3] | two-hybrid luciferase signal, fold of negative control, with SGK1 co-transfected [3] |
| --- | --- | --- | --- | --- | --- | --- |
| B1 | 1.55 | 2.05 | 1.55 | 3.07 | – | – |
| B2 | – | – | – | – | 7.74 fold change of negative control | 14.7 fold change of negative control |
| B3 | – | – | – | – | 4.33 fold change of negative control | – |
